Laboratory results taken from patent US20220211858A1, “TUBULAR SUPRAMOLECULAR POLYMERS” (priority 2019, published 2022).
Entries after “also recorded” stand apart in the source; their conditions may differ.

Columns and labels:
[1] = TEM / cryo-TEM imaging of self-assembled nanostructures (dimensions); type: physicochemical
Method: About 200 μM stock solutions of corresponding TTs in water were prepared by dissolution of the lyophilized powders. After aging overnight, TEM samples were prepared by depositing 7 μL of the appropriate solution onto a carbon-coated copper grid (Electron Microscopy Services, Hatfield, Pa., USA), wicking away the excess solution with a small piece of filter paper. Next, 7 μL of a 2 wt % uranyl acetate aqueous solution was deposited on the surface for 30 seconds, wicking away the excess solution with filter paper. The grids were then air-dried overnight at room temperature prior to imaging. Bright-field TEM imaging was performed using an FEI Tecnai 12 TWIN Transmission Electron Microscope operated at an acceleration voltage of 100 kV. All TEM images were acquired by a SIS Megaview III wide-angle CCD camera or 16 bit 2K×2K FEI Eagle bottom mount camera.
Cryo-TEM imaging was performed using higher sample concentrations of 800 μM (compared with 200 μM for conventional TEM imaging). Extended imaging times can result in damage to the vitreous ice film caused by the electron beam and so higher concentrations can allow a more rapid visualization that reduces this likelihood. About 6 μL of the appropriate solution was dropped onto a lacey carbon-film-supported TEM copper grid (Electron Microscopy Services, Hatfield, Pa., USA). All the TEM grids used for cryo-TEM imaging were pretreated with plasma air to render the lacey carbon film hydrophilic. A thin film of the sample solution was produced using a Vitrobot with a controlled humidity chamber (FEI). After loading of the sample solution, the lacey carbon grid was blotted using preset parameters and plunged instantly into a liquid ethane reservoir precooled by liquid nitrogen. The vitrified samples were then transferred to a cryo-holder and cryo-transfer stage that was cooled by liquid nitrogen. To prevent sublimation of vitreous water, the cryo-holder temperature was maintained below −170° C. during the imaging process. All images were recorded by a Tecnai 12 microscope with a cryo-holder, and the images were acquired by a 16 bit 2K×2K FEI Eagle bottom mount camera.
Self-Assembly of SAPDs from TT1. To study the self-assembly behavior of the SAPDs, we directly dissolved the lyophilized powders in deionized water at a concentration of 2 mM and neutral pH.

[2] = Drug release from TT 1 nanotubes with or without GSH; type: physicochemical; conditions: 200 μM
Method: The release of free CPT from TT 1 nanotubes was evaluated in the presence or absence of GSH. Stock solutions of 400 μM of TT 1 in deionized water were prepared and diluted to 200 μM with 20 mM PBS buffer with or without GSH (20 mM). Three replicate experiments were prepared together for both conditions. The solutions were incubated at 37° C. and samples were collected at 0 min, 10 min, 20 min, 30 min, 1 h, 2 h, 4 h, 6 h, 8 h, 12 h and 24 h. For each collected sample, the reductive release was halted by acidification of the solution through the addition of 0.2 μL of 2M HCl. Samples were then frozen with liquid nitrogen and stored at −30° C. until analysis. The amount of released CPT was monitored by RP-HPLC using the following conditions: Varian Pursuit XRs C18 (5 μm, 150×4.6 mm); 362 nm detection wavelength; 1 ml/min flow rate; the gradient began at 90% of mobile phase A (0.1% aqueous TFA) and 10% of mobile phase B (acetonitrile containing 0.1% TFA) increasing to 90% mobile phase B by 15 min and held for another 1 min before decreasing to the initial solvent composition at 20 minutes. Selected time points were characterized and data were plotted as a percentage of the total expected CPT concentration.

[3] = Physical stability of TT 1 nanotubes upon dilution in cell medium (CD); type: physicochemical
Method: The stability of non-ionic TT 1 nanotubes upon dilution in cell medium was evaluated by recording the CD spectrum for a series of prepared dilutions. […] A stock solution of TT 1 nanotube was prepared at a concentration of 1 mM in water and aged overnight. The aged solution was then diluted to 200 μM with cell medium. Further dilutions of the 200 μM TT 1 nanotube in cell medium were prepared at 100 μM, 50 μM, 25 μM, 10 μM, and 5 μM concentration. All diluted solutions were incubated for an additional two days before CD measurements were made. All the CD spectra were recorded from 300 to 440 nm using a 1 mm (for 200 μM, 100 μM, and 50 μM) or 10 mm (for 25 μM, 10 μM, and 5 μM) path length quartz cell. The spectra were collected and normalized from ellipticity (mdeg) to molar ellipticity (deg·cm^2·dmol^−1).

[4] = Biodistribution study in U87 MG tumor-bearing mice; type: in vivo, nude mice
Method: Mice bearing subcutaneous tumors were established by injecting 100 μL of a U87 MG suspension in serum-free medium (2×10^6 cells) into the right flank of the mice. When the tumor reached a size of −200 mm^3, the mice were randomly grouped and received one of the following 3 treatments via intravenous injection (n=18 for each group): free CPT (4.5 mg/kg), TT 1 (4.5 mg/kg), and TT 1 (15 mg/kg). Three mice from each group were euthanized at pre-determined time points (1, 2, 4, 8, 12, and 24 h). Plasma, major organs, and tumors were collected and stored at −80° C. for further analysis. To determine the amount of free CPT and TT 1 in the samples, 100 mg tumors were mixed with 900 μL acetonitrile (containing 0.1% TFA) and then homogenized using Precellys Evolution Super Homogenizer (Bertin Technologies, France) for 3×40 s (5,600 shakes/min). The resulting suspensions were centrifuged and the supernatants were collected. For plasma, 50 μL of sample was mixed with 450 μL acetonitrile (containing 0.1% TFA) and sonicated for 1 min. The supernatants were collected using centrifugation. All samples were filtered through a 0.22 μm membrane before analysis by a UPLC system (Waters ACQuity™ Ultra Performance LC) equipped with a reverse-phase column (ACQuity UPLC@BEH, C18, 1.7 μm 2.1×150 mm) and a fluorescence detector (ACQuity FLR, Ex/Em=362/430 nm). The column was flushed with a mixture of water (0.1% TFA) and acetonitrile (0.1% TFA) at 0.3 mL/min with the following gradient: 5% acetonitrile (0-1 min), 5-95% acetonitrile (1-5 min), 95% acetonitrile (5-8 min), 95-5% acetonitrile (8-9 min), and 5% acetonitrile (9-10 min). Peaks with retention times of 5.4 min (free CPT) and 6.9 min (TT 1) were monitored.

CC[C@]1(OC(=O)OCCSSC[C@@H](NC(C)=O)C(=O)N[C@@H](CCCCNC(=O)[C@@H](CSSCCOC(=O)O[C@]2(CC)C(=O)OCc3c2cc2n(c3=O)Cc3cc4ccccc4nc3-2)NC(C)=O)C(=O)N[C@@H](CCCCNC(=O)CCOCCOCCOCCOCCOC)C(=O)N[C@@H](CCCCNC(=O)CCOCCOCCOCCOCCOC)C(N)=O)C(=O)OCc2c1cc1n(c2=O)Cc2cc3ccccc3nc2-1 [TT 1]
wall thickness measured from toroids ([1]; TT 1 nanotubes, TEM): 3.0±0.5 nm
hollow interior diameter ([1]; TT 1 nanotubes, toroids, TEM): 2.5±0.6 nm
nanotube diameter after loading ([1]; loaded with Coumarin 6, TEM): 9.8±1.4 nm
nanotube diameter after loading ([1]; loaded with IR 780, TEM): 10.2±0.9 nm
nanotube diameter after loading ([1]; loaded with Nile Red, TEM): 9.6±1.2 nm
nanotube diameter after loading ([1]; loaded with Rose Bengal lactone, TEM): 10.7±1.4 nm
diameter of PTX-doped nanotubes ([1]; paclitaxel-doped, 200 μM, TEM): 10.6±0.9 nm
Diameters measured by conventional TEM ([1]; self-assembled nanotubes in water, 200 μM, n>40): 8.8 ± 0.8 nm
conjugated CPT released ([2]; 10 mM GSH, 37° C., by 6 h): ~100%
conjugates degraded (hydrolysis) ([2]; without GSH, 24 h): less than 10%
appearance of solution in cell medium ([3]; after one week): remained clear after one week; also recorded: remains clear after a week
change of CD signal upon dilution ([3]; cell medium with 10% FBS, 10 and 5 μM): slight decreases in intensity; also recorded: slight decrease of CD signal at 389 nm
dissociation of nanotubes upon dilution (CD) ([3]; cell medium with 10% FBS, concentrations above 25 μM, two days): no obvious disassociation; also recorded: minimum dissociation or aggregation
increase of plasma concentration versus free CPT ([4]; 4.5 mg/kg i.v., 1 hour): approximately 129 fold
increase of tumor concentration versus free CPT ([4]; 4.5 mg/kg i.v., 1 hour): 8 fold
TT 1 converted to free CPT in the tumor ([4]; 4.5 mg/kg, 1 hour after injection): 47%
TT 1 converted to free CPT in the tumor ([4]; 4.5 mg/kg, 8 hours): 82%
TT 1 converted to free CPT in the tumor ([4]; 15 mg/kg, 1 hour after injection): 58%
TT 1 converted to free CPT in the tumor ([4]; 15 mg/kg, 8 hours): 96%
retention in the blood ([4]; i.v.): up to 12 hours
